Paper PMC3340929

Biological target: NFS1–ISD11–ISCU2 protein complex (SDU) (human) (UniProt Q9HD34)
Assay: enzyme activity titration

| Kd [µM] | Substance |
| --- | --- |
| 6.25 | FXN N146K variant (FRDA missense mutation) (from UniProt Q16595 82-210) (natural protein) |
| 2.17 | FXN Q148G variant (from UniProt Q16595 82-210) (natural protein) |
| 1.35 | FXN N146A variant (from UniProt Q16595 82-210) (natural protein) |
| 10.4 | FXN R165C variant (FRDA missense mutation) (from UniProt Q16595 82-210) (natural protein) |
| 0.85 | FXN Q148R variant (FRDA missense mutation) (from UniProt Q16595 82-210) (natural protein) |
| 7.5 | FXN Q153A variant (from UniProt Q16595 82-210) (natural protein) |
